This passage reports protein production results from a protein production outcome set (Wang et al. 2014).

This data set in a line: label from the status in PepcDB records.
For “MSSNASTEKQHAGGEKTVKAEPQSTSSQKDSTDDYQPNSQVTDDRTLHKVGQTFSDDKGKAVLKDIKQVNKTYKIGDVELTVKEMKLIHLRPDYSMIDYFHELTHDEEFDFVKVFVDIKNTSTKKVNVAPIALMKTNTGETFDWNKDIYLEELNGELEGGAEKSGNLGFIVNASSGHAHDKAADAEKKTKEIKWIEITTSDVFDHNHKKISDAQKIKIKFLEHHHHHH”, the protein production entry is given as “not failed”.

In the case of “MSSNECFKCGRSGHWARECPTGGGRGRGMRSRGRGFQFVSSSLPDICYRCGESGHLAKDCDLQEDACYNCGRGGHIAKDCKEPKREREQCCYNCGKPGHLARDCDHADEQKCYSCGEFGHIQKDCTKVKCYRCGETGHVAINCSKTSEVNCYRCGESGHLARECTIEATA”, the protein production entry is “failed”. Take “MSSNNVTTDVVSVDEQAFENAGGQAVDEDGFPVVDETPAFEAEVEQETQAKVDANHPDGIADTSEDRIHGVTLEQEERIRAREAELERISAQAELGTQDGREQRTRAVAAEGSTERRREFQQRAASVEPMADPERDDPRAELSQDELATVNTEADRLATRLDGWSRAAISRRLAEAIVDGRDLTSAVVRVFEELQTAPGGTVPIDALEDIDRKEVSVEGRVTQLWEPSSPSIAQVGLIEDESGRTKLTSWKASDAPWIEEGERVRIHGAAKNWYNGRVSVAVTGWSTLHFPERGRWWDE”: the protein production entry is “failed”. Under “MSSNPTSSVREFEYKAEMKQLLNLIVHSLYTHPEIFLRELISNASDALGKARFRMLSSDEGLDKSGDLKITITVDKESGSFVIEDTGIGMSEEELISNLGTVASSGTLGFMEALKEQQKEGQRLDANLIGQFGVGFYSVFMVTDEVTVETKSIESGLQGWRWKSSGQGSYTIEPVEREARGTRISFILKEEFREFAQEYRVEQIIKKYSNFVEYPIYIGSRQINSMTALWQRPKSELKQEEVNEFYKFIANDFKDPLDYLHVSVEGAVSFKALLFIPSEAPMELLYNQGALEKRGPQLYVKKVLIQHECRDLLPEYLRFVSGVVDTEDLPLNVSRELVQASPVMAKIKQILTTKLLGWFDTIAKEEPEKFRAFYKAFGTILKIGLNTDFTNRDKLIDLLRFETTKTVEGEYVTLKEYVGRMAEGQTEIYYHSGSSRAQMLAHPNLEYFRKRDIEVLLLSDPVDVFVIPSIFEYDKKPLKSIEKAEIDMSTVEPEGERLSAEGTVGVISLFKEVLGERVADVVESRRLVSSPVTLVSGKDALDSQFEKMMKMMNKDADMPSTKKILEINTAHPIIRNLAGKHAVGLSTDPVVRAAVTQLFESALLLEGDLESVADYVSRMNELVEAATRS” stands “failed”. For “MSSPFPADTPSSNRPSNSSPPPSSIGAGFGSSSGLDSQIGSRLHFPSSSQPHVSNSQTGPFVNDSTQFSSQRLQTDGSATNDMEGNEPARSFKSRALNHVKKVDDVTGEKVREAFEQFLEDFSVQSTDTGEVEKVYRAQIEFMKIYDLNTIYIDYQHLSMRENGALAMAISEQYYRFLPFLQKGLRRVVRKYAPELLNTSDSLKRSEGDEGQADEDEQQDDDMNGSSLPRDSGSSAAPGNGTSAMATRSITTSTSPEQTERVFQISFFNLPTVHRIRDIRSEKIGSLLSISGTVTRTSEVRPELYKASFTCDMCRAIVDNVEQSFKYTEPTFCPNPSCENRAFWTLNVTRSRFLDWQKVRIQENANEIPTGSMPRTLDVILRGDSVERAKPGDRCKFTGVEIVVPDVTQLGLPGVKPSSTLDTRGISKTTEGLNSGVTGLRSLGVRDLTYKISFLACHVISIGSNIGASSPDANSNNRETELQMAANLQANNVYQDNERDQEVFLNSLSSDEINELKEMVKDEHIYDKLVRSIAPAVFGHEAVKKGILLQMLGGVHKSTVEGIKLRGDINICVVGDPSTSKSQFLKYVVGFAPRSVYTSGKASSAAGLTAAVVRDEEGGDYTIEAGALMLADNGICCIDEFDKMDISDQVAIHEAMEQQTISIAKAGIHATLNARTSILAAANPVGGRYNRKLSLRGNLNMTAPIMSRFDLFFVILDDCNEKIDTELASHIVDLHMKRDEAIEPPFSAEQLRRYIKYARTFKPILTKEARSYLVEKYKELRKDDAQGFSRSSYRITVRQLESMIRLSEAIARANCVDEITPSFIAEAYDLLRQSIIRVDVDDVEMDEEFDNIESQSHAASGNNDDNDDGTGSGVITSEPPADIEEGQSEATARPGTSEKKKTTVTYDKYVSMMNMIVRKIAEVDREGAEELTAVDIVDWYLLQKENDLGSLAEYWEERRLAFKVIKRLVKDRILMEIHGTRHNLRDLENEENENNKTVYVIHPNCEVLDQLEPQDSS”, the protein production entry is recorded as “failed”. For “MSSPSLSPHYQKMLDDLDGQVLQLDRQVFRRLARLGYQPQVIFDVGASNSGWSYYIKQVVTEADFYLFEPLVDHVPDYQGLMEETLRVYPSFHLYKYALGDRDGTITVNVFDDPASSTTLPMTEGGPSINAVQVPLLTLDSALVKLGLPQPQVIKIDTQGNELSILRGAAQTLAKVDVLFLECWLYRGYGPKTPLLTEIAHWLLPFNFRLWDVSEPYRGPQGELTTLDCIFINTAAGLVPNWYY” the value was “failed”; for “MSSQELVTLNVGGKIFTTRFSTIKQFPASRLARMLDGRDQEFKMVGGQIFVDRDGDLFSFILDFLRTHQLLLPTEFSDYLRLQREALFYELRSLVDLLNPYLLQPRPALVEVHFLSRNTQAFFRVFGSCSKTIEMLTGRITVFTEQPSAPTWNGNFFPPQMTLLPLPPQRPSYHDLVFQCGSDSTTDNQTGVRYVSIKPDNRKLANGTNVLGLLIDTLLKEGFHLVSTRTVSSEDKTECYSFERIKSPEVLITNETPKPETIIIPEQSQIKK”, “failed”. Turning to “MSSQLNHGTLPKISIVTPSYNQAQYLEATMRSILDQGYPDLEYIVMDGGSTDGSTEIIQKYSDRLTYWESAPDKGQADAIFRGFERATGEIFCYVNSDDLLLPGSLEMVGRWFREHPDEEWVVGGTILIDGLGIPIIRSRRGLPEADLGVKVTFKRLLLHNCGGFHQPASFWRRSAFEQAGGFDRTLRFCFDYDLFFRLAKRRPSGRIRSFLAAFRYHPASKTSTLESVFREENETLWRRYGRYLYSENQIRNFAHKQTTRDMWNNRIIKLGFYLKILNVSNAIGSLEHHHHHH”, the protein production entry is on record as “not failed”. For the sequence “MSSRCLGCGTKFDSEAGRPRCPACRWEPEEIGGIAAYAPQFANQGGGFEASYFKVLSELEATNFWFRSRNDLILWALRKYHPKFRSFLEIGCGTGFVLSGVTGKYPEAEIFGSEIFIEGLRFASQRLPNARLMQMDARAIPFAEEFEAIGAFDVLEHIEEDETVLQQMHAALKPKGTLLVTVPQHPWLWSPLDDYAHHCRRYTANELSRKVTAAGFTILRNTSFVSFLLPAMLASRLLSRNKSVDEIDVRTEMQLPSLLNNAFRWILRAESALIGTGFDFPLGGSRLLVARKM”, the protein production result was “failed”.

In the case of “MSSSGTSITCEVGLQLIVPDRAPVPLVARLDYSVDDPYAIRAAFHVGDDEPVEWIFARELLTVGIIRETGEGDVRIWPSQDGKERMVNIALSSPFGQARFHAQVAPLSEFLHRTYELVPAGQESDYIDIDAEIAEHLS”, the protein production result is listed as “not failed”. “MSSSKKPSQQPSQINLSAEIGQFISLNQEAFAELLTFIDFAEKFTLGLVEVNFPPDVDLLIAALQNNPDCENIQFFILKCVDANLRFLRDEIIKRLSEIELESNKKLVLIVRGLENAIGVFGEYPPVLQDLNFVRDAYKRTVPHPILFILPDYAITRLAKFAPDFWAWRSGIFRFKTPAITKENAINQVKNSEILDRIEPPEKQERIDLLHRLLMEEKPTGQQVTDGNLRSYSNILHQLGQAYLSHIKPEKAREYLEEAERISENLQDELFQAEVINTLGDTYSLQRQFNLGIKYYEKSLLIARRLENRLSEINALFKLGNAYLDLRQFSQAAKFYQQCLDIEQEIGDRYSQASTYHELGRVAQNLREWEQAKTYYQQALDITIEFGDRYNQASTYHQLGMVAQKLRKWEQAKTYYQQALDITIEFGDRYNQARIYHQLAIVAQNLREWQQAKTYYQQALDLKIEFGDRYNQASTYHQLGMVAQNLREWEQAKTYYQQALDITIEFGDRYSQASTYHQLGIVAQNLREWEQAKTYYQQALDLKIEFGDRYSQASTYGQLGTLAEAQENYVEARLNLQTALEIYVEYKDEHWAGIARKILDELPE”: the protein production result is “failed”. For “MSSTAPASQSTAEALEATASLPQAAVHDHASIMRVIGGIVLCILLAALDQTVVIPAVPAIANDLNGFGHLSWIVTAYLIVSTVTTPLYGKLSDSFGRRRLLMVAISLFILASVACALAQTLPQLILFRALQGLGGGGLMSLAQAAIADVVAPRERGRYQGYLATVWAISSIAGPLVGGWVSDHMSWRWLFWINVPLGLLAMTMCYRGLAHLKPRGGRPQVDWLGALLLAVAIVAFLLAMSWGGEAFAWISPEMAALLAISLVAVLLLAWQERRAADPMLPPRLFRNRAYVMGVGASALAALNIFLCIFALPLHFQLVRDADASMSGLLVVPFLLATVAGNFVVAWLAPRLGRMRVILTIGFVAAAVGLVSLAAVTVAVPTFFVLLAMTIGGIGLGMAMVGTLISVQNALERRDMGAGTGALLVLRSLGSSIGGALAGTLLAMEFRDALARAGVTQALDLGALRHGSEALAHLSPAVRHVLAGGVESGFHLIFAAGAVATIIALLIVRRMPDLELRSSVTEHAAKIHME”, the protein production entry is on record as “failed”. As to “MSSTSKIHAKITGPIVMIGFGSIGKGALPLIERHFEYDKKRFVIIDPHEDGELAKKHGVRFIKQAVTKDNYRELLVPLLTEGGGQGFCVNLSVDTGSVDLMTMCREIGALYIDTVVEPWLGFYFDKNAGPEKRSNYALRETLLAAKAKNPGGTTAVSTCGANPGMVSWFVKQALLDIARDTGLEFNEPKSREGWGQLAQKLGVKGIHIAERDTQRAKTPKPMNVFVNTWSVEGFVSEGLQPAELGWGTHEKWIPDNGRKHTEGCQAAIYLLQPGANTRVRTWCPTPGPQYGFLVTHNESISIADYFTVRDGQNVVYRPTCHYAYHPANDAVLSLHEMFGAEGKMQPKWHILDENEIVDGIDELGVLVYGHAKNAYWYGSQLSIEETREICPYQNATGMQVSSAVLAGMVWALENPEAGIVEADEMDFRRCLEVQKPYLGPVKGYYTDWTPLTDRPGLFPEDIDSSDPWQFKNVLVR”, the protein production result is given as “failed”. For “MSSVERYLSQLVKTEPQLETLKELYIGKKWHQLTEELLKLIHSGQVNRINLVELYDSFIREFESSLNPLALVRILVGIARKNYRDLNKALEFVDYATNSKAFISADEEASLFLKSETARLKLEGGNLSGVKQILEEVGVAMESTRDLDTVVHSSYHRVCAQYYKAVGPATKYYSSALLFFQYAPLDSFTVEERVHWAYDLGVASIVAETIFNFGEILEYDIMQSLKSEKLQWLLELLEAFKYGSIEKFNQVSNDHMSYYFVL”, the protein production entry is reported as “failed”. Take “MSSVFPKVAVLLAAYNGMAWIEAQLDSILKQANVCVSVFISVDTSSDGTEAWCADYAQHHVNITLLPPAGQFGGASRNFFRLIQDVDFSSFDYVAFSDQDDIWYQDKLERALSTLMSGNHDAYSSNVVAFWPDGQRILLDKAQPQVQWDHLFEAAGPGCTYVMNRPLADAFKSSLIAQWDVAQNVSLHDWYCYAFARSHGFRWFIDPAPGMDYRQHANNQVGANTGLASLITRLKKIADGWWAGQVLLIGRLTGGSETLFAGKITGTRWMFLRLAFMAGRCRRRPRDKIFFIIACLAAMLNTPEQRNNR”: the protein production entry is reported as “failed”. Under “MSSVKDTMTTQVATVSPNQTIQEAASLMKQHNVGAIPVVEQGVLKGMLTDRDIALRTTAQGRDGQTPVSEVMSTELVSGNPNMSLEDASQLMAQHQIRRLPIVDQNNLVGIVALGDLAVNQMSNESAGSALTNISHQNIH” stands “failed”. Consider “MSTAMYHLRVPQTEEELERYYQFRWEMLRKPLHQPKGSERDGWDALAHHQMVVDEEGNLVAVGRLYINADNEASIRFMAVHPSVQDKGLGTLMAMTLESVARQEGVKRVTCSAREDAVEFFAKLGFVNQGEITTPTTTPIRHFLMIKPVASLDDILHRGDWCGQLQQAWYEHIPLSEKMGVRIQQYTGQKFITTMPETGNQNPHHTVFAGSLFSLATLTGWGLIWLMLRERHLGGTIILADAHIRYSKPISGKPNAVADLGSLSGDLDRLARGKKARVQLQVELLGGETAGAIFEGIYIVLPLEHHHHHH”, for which the protein production entry was “failed”.
